{"source": "patent US20060292657A1", "about": "“Phex substrates and methods using same” (priority 2003, published 2006)", "proteins": {"B1": {"name": "human recombinant secPHEX (Homo sapiens) (protein)", "chain": "SLQAKQEYCLKPECIEAAAAILSKVNLSVDPCDNFFRFACDGWISNNPIPEDMPSYGVYPWLRHNVDLKLKELLEKSISRRRDTEAIQKAKILYSSCMNEKAIEKADAKPLLHILRHSPFRWPVLESNIGPEGVWSERKFSLLQTLATFRGQYSNSVFIRLYVSPDDKASNEHILKLDQATLSLAVREDYLDNSTEAKSYRDALYKFMVDTAVLLGANSSRAEHDMKSVLRLEIKIAEIMIPHENRTSEAMYNKMNISELSAMIPQFDWLGYIKKVIDTRLYPHLKDISPSENVVVRVPQYFKDLFRILGSERKKTIANYLVWRMVYSRIPNLSRRFQYRWLEFSRVIQGTTTLLPQWDKCVNFIESALPYVVGKMFVDVYFQEDKKEMMEELVEGVRWAFIDMLEKENEWMDAGTKRKAKEKARAVLAKVGYPEFIMNDTHVNEDLKAIKFSEADYFGNVLQTRKYLAQSDFFWLRKAVPKTEWFTNPTTVNAFYSASTNQIRFPAGELQKPFFWGTEYPRSLSYGAIGVIVGHEFTHGFDNNGRKYDKNGNLDPWWSTESEEKFKEKTKCMINQYSNYYWKKAGLNVKGKRTLGENIADNGGLREAFRAYRKWINDRRQGLEEPLLPGITFTNNQLFFLSYAHVRCNSYRPEAAREQVQIGAHSPPQFRVNGAISNFEEFQKAFNCPPNSTMNRGMDSCRLW", "notes": "pure soluble form of PHEX (secPHEX); made in house"}}, "experiment_in_all_cases": "Kinetic parameters for hydrolysis of internally quenched fluorogenic peptides by secPHEX", "type_in_all_cases": "biochemical, human", "settings_in_all_cases": "other: 37° C., 10 mM Bis-Tris buffer pH 5.5, 150 mM NaCl", "key": {"[1]": {"substrate": "NC(=O)[C@H](CCCCNc1ccc([N+](=O)[O-])cc1[N+](=O)[O-])NC(=O)[C@H](Cc1ccc(O)cc1)NC(=O)[C@H](CC(=O)O)NC(=O)[C@H](CO)NC(=O)[C@H](Cc1ccccc1)NC(=O)CNC(=O)c1ccccc1N", "outline": "(§1)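 Purified human recombinant secPHEX hydrolysing internally quenched fluorogenic peptides at 37° C in 10 mM Bis-Tris pH 5.5, 150 mM NaCl; fluorescence (ex 320, em 420 nm) followed continuously, <5% substrate hydrolysed, inner-filter corrected. Km and kcat by non-linear regression; kcat/Km under [S]<<Km where applicable.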"}, "[2]": {"substrate": "CC[C@H](C)[C@H](NC(=O)[C@H](CC(=O)O)NC(=O)[C@H](CC(N)=O)NC(=O)[C@H](CO)NC(=O)CNC(=O)c1ccccc1N)C(=O)N[C@@H](CCSC)C(=O)NCC(=O)N[C@@H](CCC(N)=O)C(=O)NCCNc1ccc([N+](=O)[O-])cc1[N+](=O)[O-]", "outline": "as §1"}, "[3]": {"substrate": "CC(C)[C@H](NC(=O)[C@H](CC(=O)O)NC(=O)[C@H](Cc1ccc(O)cc1)NC(=O)CNC(=O)[C@H](CC(N)=O)NC(=O)c1ccccc1N)C(=O)N[C@@H](Cc1ccc(O)cc1)C(=O)N[C@@H](Cc1c[nH]cn1)C(=O)N[C@@H](CCC(N)=O)C(=O)NCCNc1ccc([N+](=O)[O-])cc1[N+](=O)[O-]", "outline": "as §1"}}, "data": [{"protein": "B1", "values": [{"measurement": "Km", "setting": "[1]", "value": 53.2, "unit": "µM"}, {"measurement": "kcat", "setting": "[1]", "value": 1.3, "unit": "s⁻¹"}, {"measurement": "kcat/Km", "setting": "[1]", "value": 24400, "unit": "M⁻¹ s⁻¹"}, {"measurement": "Km", "setting": "[2]", "value": 13.0, "unit": "µM"}, {"measurement": "kcat", "setting": "[2]", "value": 0.01, "unit": "s⁻¹"}, {"measurement": "kcat/Km", "setting": "[2]", "value": 800, "unit": "M⁻¹ s⁻¹"}, {"measurement": "Km", "setting": "[3]", "value": 9.0, "unit": "µM"}, {"measurement": "kcat", "setting": "[3]", "value": 0.01, "unit": "s⁻¹"}, {"measurement": "kcat/Km", "setting": "[3]", "value": 1100, "unit": "M⁻¹ s⁻¹"}]}]}
